Test results as given in article doi:10.1101/2024.11.04.618112.

Target: His10-pA-Tn5 (recombinant protein A-Tn5 transposase with an N-terminal His10-tag) (Escherichia coli) (UniProt Q46731)
Assay: SEC

His10-pA-Tn5 (recombinant protein A-Tn5 transposase with an N-terminal His10-tag) (from UniProt Q46731 1-476) (enzyme)
stoichiometry N: 2
